Assay results published in paper doi:10.1101/315713 (bioRxiv, 2018).

B1: Dipeptidase 3 (DPEP3), native, from testicular tissue and spermatozoa lysates (natural protein, UniProt Q9H4B8 36-463, looked up)
chain: AETTPGAPRALSTLGSPSLFTTPGVPSALTTPGLTTPGTPKTLDLRGRAQALMRSFPLVDGHNDLPQVLRQRYKNVLQDVNLRNFSHGQTSLDRLRDGLVGAQFWSASVSCQSQDQTAVRLALEQIDLIHRMCASYSELELVTSAEGLNSSQKLACLIGVEGGHSLDSSLSVLRSFYVLGVRYLTLTFTCSTPWAESSTKFRHHMYTNVSGLTSFGEKVVEELNRLGMMIDLSYASDTLIRRVLEVSQAPVIFSHSAARAVCDNLLNVPDDILQLLKKNGGIVMVTLSMGVLQCNLLANVSTVADHFDHIRAVIGSEFIGIGGNYDGTGRFPQGLEDVSTYPVLIEELLSRSWSEEELQGVLRGNLLRVFRQVEKVREESRAQSPVEAEFPYGQLSTSCHSHLVPQNGHQATHLEVTKQPTNRVPWRS
B2: DPEP3, free soluble native form in seminal plasma (natural protein, human (endogenous in seminal plasma), UniProt Q9H4B8 36-463, looked up)
chain: B1 chain

Biological target: the molecule itself

Row | Protein | stoichiometry N
1 | B1 | 2
2 | B2 | 2
